From article PMC4432389, “Cytosolic Hsp70 and co-chaperones constitute a novel system for tRNA import into the nucleus” (eLife, 2015)

Experiments:
[1] = biological target: T1, Ssa2p (S. cerevisiae, UniProt P10592 1-639); test: pull-down; 200 pmol GST or GST-nucleoporin fusion and 40 pmol Ssa1p or Ssa2p incubated with Glutathione Sepharose in Buffer 88 (20 mM HEPES-KOH pH 6.8, 2 mM Mg(OAc)2, 150 mM KOAc) with 0.10% wt/vol Tween-20, 4°C, 2 hr; eluted with 10 mM reduced glutathione; Ssa proteins detected by Western blotting with anti-Ssa protein antibodies; conditions: both partners purified
T1 construct: Ssa2p, major cytosolic Hsp70 of S. cerevisiae, full length (residues 1-639 by the domain constructs); Expressed from a pCold2 vector with a C-terminal His6 tag; also called Ssa2p-His6; Ssa proteins; source: E. coli BL21(DE3) co-expressing trigger factor, purified (Ni-NTA agarose)

[2] = biological target: T2, Ssa1p (S. cerevisiae, UniProt P10591 1-642); test: as above; conditions: both partners purified
T2 construct: Ssa1p, cytosolic Hsp70 of S. cerevisiae, full length (residues 1-642 by the domain constructs); Expressed from a pCold2 vector with a C-terminal His6 tag; also called Ssa1p-His6; Ssa proteins; source: E. coli BL21(DE3) co-expressing trigger factor, purified (Ni-NTA agarose)
T2 sequence (P10591 whole entry, the tested form may be a part): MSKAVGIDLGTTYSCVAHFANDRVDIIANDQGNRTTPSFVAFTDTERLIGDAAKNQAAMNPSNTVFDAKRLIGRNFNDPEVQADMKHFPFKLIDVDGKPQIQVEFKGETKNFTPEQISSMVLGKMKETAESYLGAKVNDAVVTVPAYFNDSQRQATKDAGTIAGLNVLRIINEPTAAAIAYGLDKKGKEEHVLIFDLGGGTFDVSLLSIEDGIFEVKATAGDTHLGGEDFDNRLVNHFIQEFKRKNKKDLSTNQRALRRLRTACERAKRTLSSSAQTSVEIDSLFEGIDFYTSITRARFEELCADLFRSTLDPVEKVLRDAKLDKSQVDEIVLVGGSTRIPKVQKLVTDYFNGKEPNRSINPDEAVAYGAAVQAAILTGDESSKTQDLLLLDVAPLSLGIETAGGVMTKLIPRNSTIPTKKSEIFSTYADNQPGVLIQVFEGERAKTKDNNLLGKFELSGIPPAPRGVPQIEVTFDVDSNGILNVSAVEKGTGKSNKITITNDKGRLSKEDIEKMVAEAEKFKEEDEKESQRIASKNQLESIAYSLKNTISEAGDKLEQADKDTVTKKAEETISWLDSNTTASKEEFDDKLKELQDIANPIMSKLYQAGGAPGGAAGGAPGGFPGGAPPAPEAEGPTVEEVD

T1 sequence (P10592 whole entry, the tested form may be a part): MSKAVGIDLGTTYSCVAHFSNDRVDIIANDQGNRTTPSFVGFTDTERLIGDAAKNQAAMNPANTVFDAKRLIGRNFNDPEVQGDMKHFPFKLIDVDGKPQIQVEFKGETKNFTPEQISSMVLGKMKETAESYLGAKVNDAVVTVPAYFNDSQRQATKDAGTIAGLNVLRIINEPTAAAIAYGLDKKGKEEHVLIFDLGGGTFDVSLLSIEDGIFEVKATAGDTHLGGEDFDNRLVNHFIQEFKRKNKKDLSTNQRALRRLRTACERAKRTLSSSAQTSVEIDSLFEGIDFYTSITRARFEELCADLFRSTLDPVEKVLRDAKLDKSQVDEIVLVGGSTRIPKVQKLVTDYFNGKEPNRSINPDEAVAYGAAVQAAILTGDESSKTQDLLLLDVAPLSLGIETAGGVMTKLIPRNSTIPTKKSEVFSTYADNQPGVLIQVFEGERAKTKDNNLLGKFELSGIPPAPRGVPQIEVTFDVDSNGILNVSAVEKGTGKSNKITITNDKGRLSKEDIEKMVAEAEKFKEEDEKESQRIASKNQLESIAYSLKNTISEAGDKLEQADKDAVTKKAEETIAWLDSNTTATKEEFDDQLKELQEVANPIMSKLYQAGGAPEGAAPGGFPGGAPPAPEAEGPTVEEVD

binding result [1]: binds
binding result [2]: binds
B1: GST-Nup116(165–715)p (domain or fragment, S. cerevisiae, UniProt Q02630 165-715, looked up)
chain: RKFGTSQNGTGTTFNNPQGTTNTGFGIMGNNNSTTSATTGGLFGQKPATGMFGTGTGSGGGFGSGATNSTGLFGSSTNLSGNSAFGANKPATSGGLFGNTTNNPTNGTNNTGLFGQQNSNTNGGLFGQQQNSFGANNVSNGGAFGQVNRGAFPQQQTQQGSGGIFGQSNANANGGAFGQQQGTGALFGAKPASGGLFGQSAGSKAFGMNTNPTGTTGGLFGQTNQQQSGGGLFGQQQNSNAGGLFGQNNQSQNQSGLFGQQNSSNAFGQPQQQGGLFGSKPAGGLFGQQQGASTFASGNAQNNSIFGQNNQQQQSTGGLFGQQNNQSQSQPGGLFGQTNQNNNQPFGQNGLQQPQQNNSLFGAKPTGFGNTSLFSNSTTNQSNGISGNNLQQQSGGLFQNKQQPASGGLFGSKPSNTVGGGLFGNNQVANQNNPASTSGGLFGSKPATGSLFGGTNSTAPNASSGGIFGSNNASNTAATTNSTGLFGNKPVGAGASTSAGGLFGNNNNSSLNNSNGSTGLFGSNNTSQSTNAGGLFQNNTSTNTSGGGLFS
notes: Cloned into pGEX-4T-2; also called Nup116p; source: DH5α, purified (Glutathione Sepharose, NAP-10 desalting)
